Values of other authors, collected in article PMC6589385.

Target: His19 (position 19, …)
Assay: NMR
Settings: Membrane-bound wild-type BM2 tetrameric channel

MLEPFQILSISSFILSALHFMAWTIGHLNQIKR [Influenza B virus M2 protein (BM2) transmembrane domain, wild type (Influenza B virus)]
pKa: 5.1
